# Test results taken from the DeepSol protein solubility set.
# Assay: soluble on expression in E. coli; label from the status in PepcDB or PDB records
row,Sequence,soluble on expression in E. coli
1,MGSDKIHHHHHHMSEQNLIEVRDLAVEFVTGDQVNRVVDGVSFDIRKGETLALVGESGSGKSVTAHSILRLLPYPLARHPSGSIRYEGKDLLQQSEKTLQRIRGNRIAMIFQEPMTSLNPLHCIEKQINEILLLHKGLTGKEATARTLELLDMVGIPEPRKRLKALPHELSGGQRQRVMIAMALANEPELLIADEPTTALDVTVQLKILELLKELQARMGMALLLISHDLNLVRRIAHRVCVMQRGQIVEQAECATLFSSPQHHYTQMLINAEPSGLPAHNPVGAPLLEVDDLKVWFPIKKGFLQRTVDHVKAVDGVNFSLPQGQTLGIVGESGSGKSTLGLAILRLISSQGGIRFHGQNLEGLNQKAVRPLRREMQVVFQDPFGSLSPRMCVADIVGEGLRIHRIGTAQEQEAAIIAALEEVGLDPRTRHRYPHEFSGGQRQRIAIARALVLKPALILLDEPTSALDRTVQRQVVELLRNLQQKYNLTYLFISHDLAVVKALSHQLMVIKHGHVVEQGDAQAIFHAPQHPYTRQLLEAAFLEVGG,not soluble
2,MSLSIKLIAVDMDGTFLSDQKTYNRERFMAQYQQMKAQGIRFVVASGNQYYQLISFFPEIANEIAFVAENGGWVVSEGKDVFNGELSKDAFATVVEHLLTRPEVEIIACGKNSAYTLKKYDDAMKTVAEMYYHRLEYVDNFDNLEDIFFKFGLNLSDELIPQVQKALHEAIGDIMVPVHTGNGSIDLIIPGVHKANGLRQLQKLWGIDDSEVVVFGDGGNDIEMLRQAGFSFAMENAGSAVVAAAKYRAGSNNREGVLDVIDKVLKHEAPFKEGHHHHHH,soluble
3,MFILHRSMLPCGANQMDLIQENGQPRYGRFSQLPTAIGLDRYIYKSPYGKIEKGWRKKLKYKKFKFCSIQHQHYSIGLAIADIGWAGHGFFYVYDHAKHQVQEWNAIHAFARKTCVDEQPLFNQSYFYKSPFELDIQHANGVRYLRVTKYGEILLSARIFCAGTEPLSLCSPNGINGWTYTQKKTTLGVEGYFTTKQGEMIEFNETSLASLDDTCGFLRPETAWFWLSSSFWTDHGDRIGINLASGVNESFGNENCIWINGVLHSIADVLFERQDKNHWVIRSLDHKLELHVETGWRRYESINLRMVGSQFSQWQAKLTGKILLDENKTVVLNQEYALLEQHYAKW,not soluble
4,LALMSAAKLPKSFVWGYATAAYQIEGSPDKDGREPSIWDTFCKAPGKIADGSSGDVATDSYNRWREDVQLLKSYGVKAYRFSLSWSRIIPKGGRSDPVNGAGIKHYRTLIEELVKEGITPFVTLYHWDLPQALDDRYGGWLNKEEAIQDFTNYAKLCFESFGDLVQNWITFNEPWVISVMGYGNGIFAPGHVSNTEPWIVSHHIILAHAHAVKLYRDEFKEKQGGQIGITLDSHWLIPYDDTDASKEATLRAMEFKLGRFANPIYKGEYPPRIKKILGDRLPEFTPEEIELVKGSSDFFGLNTYTTHLVQDGGSDELAGFVKTGHTRADGTQLGTQSDMGWLQTYGPGFRWLLNYLWKAYDKPVYVTENGFPVKGENDLPVEQAVDDTDRQAYYRDYTEALLQAVTEDGADVRGYFGWSLLDNFEWAEGYKVRFGVTHVDYETQKRTPKKSAEFLSRWFKEHIEE,soluble
5,MDLIFSLGVMIMPLTPPASPKTERRSEEDNQQTNQQGNEQGNQQPRSSILTLFGFTPNALVMPCPHGHGHFHIMDIQADDTLVFATMNGSPEIMSLLALQFLMQNVNLNLDDMLAAETDAKEAEEKEEQELSSSESVNEEKEEAEFSSSESENEEKEEENEESSRFTM,not soluble
6,MYVAVKGGEKAIDNAHRLLARKRRGDTALPELSVEQIRQQMPLAVSRVMTEGSLYDEQLAALAIKQAAGDLMEAIFLLRAYRTTLPRFAASLPLDTAGMRLQRRISATYKDLPGGQLLGPTFDYTHRLLDFSLLAEGDYPGPEVERGASLEPCPRVLGLLDREGLMTPEYELPGAVPDITREPLDFPTGRAQRLQALARGDEGFLLALGYSTQRGYGRNHPFAGEIRIGACEVWLEPEELGFAVPVGEIEVTECEMVNQFVGSREELPQFTRGYGLAFGYAERKAMGMALVDRALRAEEYGEEVVSPAQQEEFVLMHCDNVEAGGFVSHLKLPHYVDFQSELELIRKLRRPGVAESAQPTVQEKRA,not soluble
7,MSLEFANFDSDLQYFLFQHIAVLLTANTKYRRALLLYGGAKNGKSVFINLVRSFFYSEDIVSKALNELQGRFDKESLVGKKLMASDEIGESRIQEKIVNDLKKLVSVEPVHVDRKGKTQVETTLDLKLAFGTNARLNFPSAHAKALERRIAVIPCEYYVEKADPDLIEKLQDEKKEIFLYLMYVYKQIVKNDIEYLQNDRVTEISHDWLNFGYEFVSSKSASIANQKACINLLRKLIEIKPGSRIKVSELNKVINEEIKVSSQVIKQLIQANFDTQTKLYNGYDYWIDLGWKEADKKEIHDISKKDNIISLDKNENITDDETLDEENLDFDWEDFDDEGHHHHHH,not soluble
8,MSELFKKLMDQIEMPLEIKNSSVFSSADIIEVKVHSLSRLWEFHFSFPELLPIEVYRELQTRLVNSFEKADIKATFDIRAETIDFSDDLLQDYYQQAFCEPLCNSASFKSSFSQLKVHYNGSQMIISAPQFVNNNHFRQNHLPRLEQQFSLFGF,not soluble
9,GRTVVVLGGGISGLAASYHLSRAPCPPKVVLVESSERLGGWIRSVRGPNGAIFELGPRGIRPAGALGARTLLLVSELGLDSEVLPVRGDHPAAQNRFLYVGGALHALPTGLRGLLRPSPPFSKPLFWAGLRELTKPRGKEPDETVHSFAQRRLGPEVASLAMDSLCRGVFAGNSRELSIRSCFPSLFQAEQTHRSILLGLLLGAGRTPQPDSALIRQALAERWSQWSLRGGLEMLPQALETHLTSRGVSVLRGQPVCGLSLQAEGRWKVSLRDSSLEADHVISAIPASVLSELLPAEAAPLARALSAITAVSVAVVNLQYQGAHLPVQGFGHLVPSSEDPGVLGIVYDSVAFPEQDGSPPGLRVTVMLGGSWLQTLEASGCVLSQELFQQRAQEAAATQLGLKEMPSHCLVHLHKNCIPQYTLGHWQKLESARQFLTAHRLPLTLAGASYEGVAVNDCIESGRQAAVSVLGTEPNS,soluble
10,MSKTRMEKLKTLKTIAETLNQGHDIKATLDEVLKELLSLTNLQSGWIFLIEEDGSYTLAADAYLPPALSRKEKVLMCEGECYCLTKFNNGGLRKAANIMNCKRIESAENLHCFDTEGITHHATVPLEDGDRRFGLLNVAAAGKTMFDEEELHLLESVAFQIGTAIQRMRLSEYQQK,not soluble
11,MAPRTYASVLTTPRGPAPLALYCPEAPECPKLEAISNLSFQQITQQAGTSNDQGFEFENTYVEHRINQEIESFVDTHHQEPLRKAAAQFRAVMKQEYPDSTCFITGSYPAGVDIFSSDIDFTVKVPTLEGANPFLKLMQLRKELSCYYTIFSKAYVQKGNIPVLQLMHAETKVSIDVTIDNDTSKRNTQLLAFYSQLDTRFPLLCKAMKAWAASCGVEGASRGRLNSFSLCLMLIHYLQTVQVLLNIQEIFPELNGDIVVEDDNYMKRDLKIEILEKGAFDFNQNTSSLAVLFIGFMKYYSEFNFKWNWISIKHGNVLKKKWSKTRVPKNGMPKDCRFIVVADPLLEIPRNCAGTVRQQNYMERIQLEFREEYERILKRKTIFNLYQCNWSRKLRKEGMERDLQIMILQDELRKLRIANLPTEEEVPWGTVVDFTSPRTFSPTNQHPKVFWCSEQTTENQRRDNLWPELLRTNPYAIFENLI,soluble
12,MSLKAWQLENFGLDNLKQVELEKPEIAEDQILIKVNSVSLNYRDTAIVEGIYTPELLKFPFIPVSDASGIVVEIGSKVTKFKKGDRVTSHMFTKWLDGKPKSDEQSHALGATVDGGLSEYMVLNENAAVFSPETLTDNQSSTLPVAAFVNWFSLVEYGNIKAGDKVLVQGTGGVSIFAIQIASALGAEVIATSSSDEKLEKAKELGASKVINYKTHPDWEKEVQKLTNGKGVEHIVEVVGGSSIAKSIDALAFQGHIYVIGFLENMEANVNLFALLAKQARIQGVNLGHHRAFEDFNKALDQINIDPVIDTVYSFDQAKEAYEHQMKGAFGKIVIDFNEGHHHHHH,not soluble
13,MGHHHHHHSHMAATAAVSPSDYLQPAASTTQDSQPSPLALLAATCSKIGPPAVEAAVTPPAPPQPTPRKLVPIKPAPLPLSPGKNSFGILSSKGNILQIQGSQLSASYPGGQLVFAIQNPTMINKGTRSNANIQYQAVPQIQASNSQTIQVQPNLTNQIQIIPGTNQAIITPSPSSHKPVPIKPAPIQKSSTTTTPVQSGANVVKLTGGGGNVTLTLPVNNLVNASDTGAPTQLLTASCQTGMLNSTRMFLFLAFINVL,not soluble
